Test results published in article PMC11445581.
One block for each substance: values may come before it.

Tests used:
[1] = target: Anaphase Promoting Complex/Cyclosome (APC/C) with APC8-mScarlet, endogenous (human (endogenous in RPE-1)) (UniProt Q9UJX2); assay: fluorescence cross-correlation spectroscopy (FCCS); living RPE-1 Cyclin B1-mEmerald+/+; APC8-mScarlet+/+ cells in metaphase (untreated; similar with MG132), measured in the cytoplasm; in vivo KD
[2] = target: Anaphase Promoting Complex/Cyclosome (APC/C) with APC8-mScarlet, endogenous (human (endogenous in RPE-1)) (UniProt Q9UJX2); assay: fluorescence cross-correlation spectroscopy (FCCS); living RPE-1 Cyclin B1-mEmerald+/+; APC8-mScarlet+/+ cells in metaphase (untreated; similar with MG132), measured at the chromatin (chromosomes); in vivo KD
[3] = target: Anaphase Promoting Complex/Cyclosome (APC/C), endogenous, with APC8-mScarlet (human (endogenous in RPE-1)) (UniProt Q9UJX2); assay: fluorescence cross-correlation spectroscopy (FCCS); in living RPE-1 Cyclin B1-mEmerald+/+; APC8-mScarlet+/+ cells (metaphase by p-0009), measured in the cytoplasm; apparent
[4] = target: Anaphase Promoting Complex/Cyclosome (APC/C), endogenous, with APC8-mScarlet (human (endogenous in RPE-1)) (UniProt Q9UJX2); assay: fluorescence cross-correlation spectroscopy (FCCS); in living RPE-1 Cyclin B1-mEmerald+/+; APC8-mScarlet+/+ cells (metaphase by p-0009), measured at the chromosomes; apparent
[5] = target: Anaphase Promoting Complex/Cyclosome (APC/C), endogenous, with APC8-mScarlet (human (endogenous in RPE-1)) (UniProt Q9UJX2); assay: fluorescence cross-correlation spectroscopy (FCCS); in living RPE-1 Cyclin B1-mEmerald+/+; APC8-mScarlet+/+ cells (metaphase by p-0009), measured at the spindle poles; apparent
[6] = target: Anaphase Promoting Complex/Cyclosome (APC/C), endogenous, with APC8-mScarlet (human (endogenous in RPE-1)) (UniProt Q9UJX2); assay: fluorescence cross-correlation spectroscopy (FCCS); in living RPE-1 Cyclin B1-mEmerald+/+; APC8-mScarlet+/+ cells (metaphase by p-0009), measured at the spindle fibres; apparent
[7] = target: Nucleosome Core Particle NCP147, P04908;P68431;P62805; assay: EMSA; details: 2 µM Cyclin B1; parent: est. 18; read off a plot

- Kd [1]: 180 nM
- Kd [2]: 80 nM
Substance: Cyclin B1-mEmerald (endogenous, both alleles tagged) (from UniProt P14635 1-433) (natural protein)

- Kd [3]: 176 nM
- Kd [4]: 83 nM
- Kd [5]: 81 nM
- Kd [6]: 71 nM
Substance: Cyclin B1-mEmerald (endogenous) (from UniProt P14635 1-433) (natural protein)

- other: Unbound NCP147 (%) [7]: 85%
Substance: Cyclin B1^WT-StrepII, full length (from UniProt P14635) L3A; R4A; V5A; T6A; R7A

- other: Unbound NCP147 (%) [7]: 54%
Substance: Cyclin B1^WT-StrepII, full length (from UniProt P14635) R4E; R7E
